{
  "source": "paper PMC11621151",
  "assay_in_all_cases": "SPR",
  "key": {"[1]": {"target": "monkey neonatal Fc receptor (FcRn) (monkey) (UniProt Q8SPV9)"}, "[2]": {"target": "rabbit neonatal Fc receptor (FcRn) (rabbit)"}, "[3]": {"target": "mouse neonatal Fc receptor (FcRn) (mouse) (UniProt Q61559)"}, "[4]": {"target": "rat neonatal Fc receptor (FcRn) (rat) (UniProt P13599)"}, "[5]": {"target": "human neonatal Fc receptor (FcRn) (human) (UniProt P55899)"}},
  "data": [
    {"substance": "Efgartigimod (domain or fragment)", "values": [
      {"measurement": "Kd", "setting": "[1]", "result": 14.5, "unit": "nM"},
      {"measurement": "Kd", "setting": "[2]", "result": 310, "unit": "nM"},
      {"measurement": "Kd", "setting": "[3]", "result": 0.63, "unit": "nM"},
      {"measurement": "Kd", "setting": "[4]", "result": 1.89, "unit": "nM"},
      {"measurement": "Kd", "setting": "[5]", "result": 8.56, "unit": "nM"}
    ]}
  ]
}
